To fix the notation:
B1: ZNF263 (parent)
chain: CSECGESFSRSSRLMSHQRTHTG
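Also: lentivirally expressed fusions sorted by FACS into six bins by GFP to DsRed ratio, PSI derived from sequencing read proportions per bin multiplied by bin number.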

In this series the parent is B1. Nature of the series: protein stability index of a GFP-peptide fusion (GPS, HEK-293T) (PSI 1-6); higher = more stable. The settings on record: c terminus: native.
As for CSECGESFVRSSRLMSHQRTHTG [S9V], the protein stability index was 2.42.

In the case of CSECGESFYRSSRLMSHQRTHTG [S9Y], the protein stability index was 3.1.

Take CSECGESFMRSSRLMSHQRTHTG [S9M]: the protein stability index is 2.68.

For CSECGESFWRSSRLMSHQRTHTG [S9W], the protein stability index was 2.84.

For the variant CSECGESFTRSSRLMSHQRTHTG [S9T], the protein stability index stood at 2.98.

As to CSECGESFFRSSRLMSHQRTHTG [S9F], the protein stability index turned out to be 2.58.

CSECGESFRRSSRLMSHQRTHTG [S9R]: the protein stability index was 2.37.

In the case of CSECGESFGRSSRLMSHQRTHTG [S9G], the protein stability index was found to be 2.23.

For the variant CSECGESFNRSSRLMSHQRTHTG [S9N], the protein stability index came to 2.67.

Regarding CSECGESFCRSSRLMSHQRTHTG [S9C], the protein stability index came to 2.35.

With CSECGESFERSSRLMSHQRTHTG [S9E], the protein stability index was found to be 3.67.

Take CSECGESFARSSRLMSHQRTHTG [S9A]: the protein stability index turned out to be 2.54.

As for CSECGESFPRSSRLMSHQRTHTG [S9P], the protein stability index was found to be 1.74.

Take CSECGESFQRSSRLMSHQRTHTG [S9Q]: the protein stability index is 1.94.

On to CSECGESFHRSSRLMSHQRTHTG [S9H], for which the protein stability index is 2.99.

Regarding CSECGESFIRSSRLMSHQRTHTG [S9I], the protein stability index was 2.4.

As for CSECGESFKRSSRLMSHQRTHTG [S9K], the protein stability index was 2.23.

For the variant CSECGESFLRSSRLMSHQRTHTG [S9L], the protein stability index came out at 2.03.

Regarding CSECGESFDRSSRLMSHQRTHTG [S9D], the protein stability index turned out to be 4.09.

As to CSEFGESFSRSSRLMSHQRTHTG [C4F], the protein stability index worked out at 1.24.

Regarding CSEDGESFSRSSRLMSHQRTHTG [C4D], the protein stability index is 2.31.

CSEGGESFSRSSRLMSHQRTHTG [C4G]: the protein stability index stood at 1.82.

As for CSEAGESFSRSSRLMSHQRTHTG [C4A], the protein stability index amounted to 1.56.

CSEHGESFSRSSRLMSHQRTHTG [C4H]: the protein stability index came to 1.4.

As to CSEPGESFSRSSRLMSHQRTHTG [C4P], the protein stability index stood at 1.51.

As for CSEQGESFSRSSRLMSHQRTHTG [C4Q], the protein stability index was determined as 1.53.

As for CSEMGESFSRSSRLMSHQRTHTG [C4M], the protein stability index was determined as 1.85.

As to CSETGESFSRSSRLMSHQRTHTG [C4T], the protein stability index stood at 1.56.

For CSEEGESFSRSSRLMSHQRTHTG [C4E], the protein stability index was determined as 1.8.

For CSERGESFSRSSRLMSHQRTHTG [C4R], the protein stability index turned out to be 1.15.

Consider CSEVGESFSRSSRLMSHQRTHTG [C4V], for which the protein stability index amounted to 2.12.

Regarding CSENGESFSRSSRLMSHQRTHTG [C4N], the protein stability index was 2.11.

For CSEKGESFSRSSRLMSHQRTHTG [C4K], the protein stability index came to 1.42.

Turning to CSEIGESFSRSSRLMSHQRTHTG [C4I], the protein stability index was 1.74.

As for CSELGESFSRSSRLMSHQRTHTG [C4L], the protein stability index was 1.81.

CSECGECFSRSSRLMSHQRTHTG [S7C]: the protein stability index is 2.67.

Regarding CSECGENFSRSSRLMSHQRTHTG [S7N], the protein stability index was determined as 2.64.

In the case of CSECGEYFSRSSRLMSHQRTHTG [S7Y], the protein stability index is 3.8.

With CSECGEQFSRSSRLMSHQRTHTG [S7Q], the protein stability index was 3.41.

For the variant CSECGEAFSRSSRLMSHQRTHTG [S7A], the protein stability index was 2.94.

As for CSECGEWFSRSSRLMSHQRTHTG [S7W], the protein stability index amounted to 3.75.

In the case of CSECGEDFSRSSRLMSHQRTHTG [S7D], the protein stability index stood at 1.84.

As to CSECGEGFSRSSRLMSHQRTHTG [S7G], the protein stability index is 2.35.

As to CSECGEHFSRSSRLMSHQRTHTG [S7H], the protein stability index was determined as 2.58.

On to CSECGEKFSRSSRLMSHQRTHTG [S7K], for which the protein stability index is 2.72.

Consider CSECGERFSRSSRLMSHQRTHTG [S7R], for which the protein stability index turned out to be 2.33.

For CSECGEPFSRSSRLMSHQRTHTG [S7P], the protein stability index is 2.63.

For the variant CSECGEEFSRSSRLMSHQRTHTG [S7E], the protein stability index stood at 3.51.

As to CSECGETFSRSSRLMSHQRTHTG [S7T], the protein stability index is 3.69.

As for CSECGEIFSRSSRLMSHQRTHTG [S7I], the protein stability index was 3.88.

As to CSECGELFSRSSRLMSHQRTHTG [S7L], the protein stability index was determined as 3.6.

Turning to CSECGEVFSRSSRLMSHQRTHTG [S7V], the protein stability index worked out at 4.13.

For the variant CSECGEMFSRSSRLMSHQRTHTG [S7M], the protein stability index is 3.59.

For the variant CSECGESASRSSRLMSHQRTHTG [F8A], the protein stability index was determined as 1.35.

As to CSECGESISRSSRLMSHQRTHTG [F8I], the protein stability index is 1.21.

For the variant CSECGESMSRSSRLMSHQRTHTG [F8M], the protein stability index is 2.21.

On to CSECGESQSRSSRLMSHQRTHTG [F8Q], for which the protein stability index came to 2.16.

Consider CSECGESPSRSSRLMSHQRTHTG [F8P], for which the protein stability index is 1.91.

CSECGESCSRSSRLMSHQRTHTG [F8C]: the protein stability index amounted to 2.

With CSECGESDSRSSRLMSHQRTHTG [F8D], the protein stability index came out at 2.63.

In the case of CSECGESSSRSSRLMSHQRTHTG [F8S], the protein stability index stood at 2.11.

For the variant CSECGESTSRSSRLMSHQRTHTG [F8T], the protein stability index worked out at 2.04.

Regarding CSECGESRSRSSRLMSHQRTHTG [F8R], the protein stability index amounted to 2.2.

Turning to CSECGESKSRSSRLMSHQRTHTG [F8K], the protein stability index was 2.14.

Regarding CSECGESWSRSSRLMSHQRTHTG [F8W], the protein stability index came to 3.15.

Consider CSECGESYSRSSRLMSHQRTHTG [F8Y], for which the protein stability index amounted to 2.39.

On to CSECGESESRSSRLMSHQRTHTG [F8E], for which the protein stability index is 3.32.

Regarding CSECGESLSRSSRLMSHQRTHTG [F8L], the protein stability index is 1.37.

Turning to CSECGESHSRSSRLMSHQRTHTG [F8H], the protein stability index is 2.13.

Consider CSECGESGSRSSRLMSHQRTHTG [F8G], for which the protein stability index was 2.58.

In the case of CSECGESNSRSSRLMSHQRTHTG [F8N], the protein stability index was found to be 1.92.

Regarding CSECGISFSRSSRLMSHQRTHTG [E6I], the protein stability index worked out at 2.15.

On to CSECGDSFSRSSRLMSHQRTHTG [E6D], for which the protein stability index stood at 1.89.

CSECGFSFSRSSRLMSHQRTHTG [E6F]: the protein stability index worked out at 1.61.

CSECGKSFSRSSRLMSHQRTHTG [E6K]: the protein stability index was 3.25.

Consider CSECGHSFSRSSRLMSHQRTHTG [E6H], for which the protein stability index was 2.05.

With CSECGYSFSRSSRLMSHQRTHTG [E6Y], the protein stability index turned out to be 1.56.

In the case of CSECGLSFSRSSRLMSHQRTHTG [E6L], the protein stability index is 3.22.

In the case of CSECGNSFSRSSRLMSHQRTHTG [E6N], the protein stability index is 1.73.

For the variant CSECGRSFSRSSRLMSHQRTHTG [E6R], the protein stability index is 3.9.

CSECGMSFSRSSRLMSHQRTHTG [E6M]: the protein stability index was determined as 3.42.

For the variant CSECGSSFSRSSRLMSHQRTHTG [E6S], the protein stability index was determined as 2.94.

CSECGPSFSRSSRLMSHQRTHTG [E6P]: the protein stability index was found to be 1.92.

CSECGQSFSRSSRLMSHQRTHTG [E6Q]: the protein stability index was 2.96.

Turning to CSECGVSFSRSSRLMSHQRTHTG [E6V], the protein stability index turned out to be 2.97.

Turning to CSECGCSFSRSSRLMSHQRTHTG [E6C], the protein stability index came out at 2.52.

Take CSECGASFSRSSRLMSHQRTHTG [E6A]: the protein stability index came out at 3.66.

Take CSECGTSFSRSSRLMSHQRTHTG [E6T]: the protein stability index was 1.76.

Take CSECGWSFSRSSRLMSHQRTHTG [E6W]: the protein stability index worked out at 2.02.

Consider CSLCGESFSRSSRLMSHQRTHTG [E3L], for which the protein stability index is 2.9.

Consider CSPCGESFSRSSRLMSHQRTHTG [E3P], for which the protein stability index was determined as 1.33.

With CSICGESFSRSSRLMSHQRTHTG [E3I], the protein stability index turned out to be 4.09.

In the case of CSHCGESFSRSSRLMSHQRTHTG [E3H], the protein stability index is 2.56.

On to CSNCGESFSRSSRLMSHQRTHTG [E3N], for which the protein stability index was found to be 2.58.

Take CSQCGESFSRSSRLMSHQRTHTG [E3Q]: the protein stability index was 3.33.

For the variant CSYCGESFSRSSRLMSHQRTHTG [E3Y], the protein stability index was found to be 3.54.

Consider CSTCGESFSRSSRLMSHQRTHTG [E3T], for which the protein stability index is 3.74.

(Values after the supplement of paper PMC10567573.)
